Source: patent US12649778
Where “and” joins values, the source holds several entries; their conditions need not be identical. Equal entries are not always repeated. Where two headings read alike, the source gives them in different places.

What was measured:
[1] = biological target: Peptide 1593 (…) (Mycobacterium tuberculosis)
[2] = biological target: Peptide 1593 (…) (Mycobacterium tuberculosis); assay: SPR (Biacore), IgG amine-coupled, peptide as analyte
[3] = biological target: Peptide 1593 (…) (Mycobacterium tuberculosis); remark: listed apart in the source
[4] = biological target: Peptide 1593 (…) (Mycobacterium tuberculosis); assay: ELISA, Fab supernatant on coated peptide

| Binder | Kd [1] | Kd [2] | koff [2] | kon [2] | OD450 nm (single well) [3] | OD450 at 0.00390625 ug/ml coated antigen [4] | OD450 at 0.0078125 ug/ml coated antigen [4] | OD450 at 0.00953125 ug/ml coated antigen (so in the source) [4] | OD450 at 0.015625 ug/ml coated antigen [4] | OD450 at 0.03125 ug/ml coated antigen [4] | OD450 at 0.0625 ug/ml coated antigen [4] | OD450 at 0.125 ug/ml coated antigen [4] | OD450 at 0.25 ug/ml coated antigen [4] | OD450 at 0.5 ug/ml coated antigen [4] | OD450 at 1 ug/ml coated antigen [4] |
| --- | --- | --- | --- | --- | --- | --- | --- | --- | --- | --- | --- | --- | --- | --- | --- |
| 65D3 mutant IgG variant 1 (S55W&G64K-VH + S57T-VL) (antibody) heavy: QSLEESGGRLVTPGGSLTLTCTVSGFSLSTHDISWVRQAPGKGLEWIGVIARRGWTYYASWAKKRFTISKTSTTVDLKITSPTIEDTATYFCAREEFDFWGQGTLVTVSSGQPKAPSVFPLAPCCGDTPSSTVTLGCLVKGYLPEPVTVTWNSGTLTNGVRTFPSVRQSSGLYSLSSVVSVTSSSQPVTCNVAHPATNTKVDKTVAPSTCSKPTCPPPELLGGPSVFIFPPKPKDTLMISRTPEVTCVVVDVSQDDPEVQFTWYINNEQVRTARPPLREQQFNSTIRVVSTLPIAHQDWLRGKEFKCKVHNKALPAPIEKTISKARGQPLEPKVYTMGPPREELSSRSVSLTCMINGFYPSDISVEWEKNGKAEDNYKTTPAVLDSDGSYFLYSKLSVPTSEWQRGDVFTCSVMHEALHNHYTQKSISRSPGK light: AVLTQTASPVSAAVGGTVTISCQSSQSVYNNKELSWFQQKPGQPPKLLISYASTLATGVPSRFKGSGSGTQFTLTISDLECDDAATYYCLGGYASTIDMWAFGGGTEVVVKGDPVAPTVLIFPPAADQVATGTVTIVCVANKYFPDVTVTWEVDGTTQTTGIENSKTPQNSADCTYNLSSTLTLTSTQYNSHKEYTCKVTQGTTSVVQSFNRGDC | 2.7 nM | 2.6 nM | 0.00027 s⁻¹ | 104000 M⁻¹ s⁻¹ |  |  |  |  |  |  |  |  |  |  |  |
| chimeric Fab antibody of 65D3 (wild type) (Fab, V domains shown) VH: QSLEESGGRLVTPGGSLTLTCTVSGFSLSTHDISWVRQAPGKGLEWIGVIARRGSTYYASWAKGRFTISKTSTTVDLKITSPTIEDTATYFCAREEFDFWGQGTLVTVSS VL: AVLTQTASPVSAAVGGTVTISCQSSQSVYNNKELSWFQQKPGQPPKLLISYASTLASGVPSRFKGSGSGTQFTLTISDLECDDAATYYCLGGYASTIDMWAFGGGTEVVVK |  |  |  |  | 0.879 and 0.794 | 0.133 OD450 and 0.147 OD450 | 0.319 OD450 and 0.341 OD450 | 0.084 OD450 | 0.73 OD450 and 0.789 OD450 | 1.21 OD450 and 1.37 OD450 | 1.71 OD450 and 1.8 OD450 | 1.94 OD450 and 2.04 OD450 | 2.18 OD450 and 2.23 OD450 | 2.27 OD450 and 2.25 OD450 | 2.3 OD450 and 2.31 OD450 |
| 65D3 mutant IgG variant 3 (S55W-VH + VL) (antibody) heavy: QSLEESGGRLVTPGGSLTLTCTVSGFSLSTHDISWVRQAPGKGLEWIGVIARRGWTYYASWAKGRFTISKTSTTVDLKITSPTIEDTATYFCAREEFDFWGQGTLVTVSSGQPKAPSVFPLAPCCGDTPSSTVTLGCLVKGYLPEPVTVTWNSGTLTNGVRTFPSVRQSSGLYSLSSVVSVTSSSQPVTCNVAHPATNTKVDKTVAPSTCSKPTCPPPELLGGPSVFIFPPKPKDTLMISRTPEVTCVVVDVSQDDPEVQFTWYINNEQVRTARPPLREQQFNSTIRVVSTLPIAHQDWLRGKEFKCKVHNKALPAPIEKTISKARGQPLEPKVYTMGPPREELSSRSVSLTCMINGFYPSDISVEWEKNGKAEDNYKTTPAVLDSDGSYFLYSKLSVPTSEWQRGDVFTCSVMHEALHNHYTQKSISRSPGK VL: AVLTQTASPVSAAVGGTVTISCQSSQSVYNNKELSWFQQKPGQPPKLLISYASTLASGVPSRFKGSGSGTQFTLTISDLECDDAATYYCLGGYASTIDMWAFGGGTEVVVK |  | 2.03 nM | 0.00026 s⁻¹ | 128000 M⁻¹ s⁻¹ |  |  |  |  |  |  |  |  |  |  |  |
